Results from patent US20240368668A1, “SUBSTRATES AND BIOMARKERS OF ADAMTS7” (The Broad Institute, Inc., priority 2021, published 2024).
Square brackets hold non-standard residues; d marks the D form. Ends that are not written are not given here. Met(O) = CS(=O)CC[C@H](N)C(=O)O

Biological target: T1, mouse ADAMTS7 (Mus musculus, UniProt Q68SA9, E373Q)
T1 construct: Full-length mouse Adamts7 1-1857 (Uniprot Q68SA9, WT or E373Q catalytic mutant); expressed in transfected cells; host or cells: Human Coronary Artery Smooth Muscle Cells (HCA-SMC, Lonza), adenovirus 50 MOI
T1 sequence (Q68SA9 221-1657 E373Q): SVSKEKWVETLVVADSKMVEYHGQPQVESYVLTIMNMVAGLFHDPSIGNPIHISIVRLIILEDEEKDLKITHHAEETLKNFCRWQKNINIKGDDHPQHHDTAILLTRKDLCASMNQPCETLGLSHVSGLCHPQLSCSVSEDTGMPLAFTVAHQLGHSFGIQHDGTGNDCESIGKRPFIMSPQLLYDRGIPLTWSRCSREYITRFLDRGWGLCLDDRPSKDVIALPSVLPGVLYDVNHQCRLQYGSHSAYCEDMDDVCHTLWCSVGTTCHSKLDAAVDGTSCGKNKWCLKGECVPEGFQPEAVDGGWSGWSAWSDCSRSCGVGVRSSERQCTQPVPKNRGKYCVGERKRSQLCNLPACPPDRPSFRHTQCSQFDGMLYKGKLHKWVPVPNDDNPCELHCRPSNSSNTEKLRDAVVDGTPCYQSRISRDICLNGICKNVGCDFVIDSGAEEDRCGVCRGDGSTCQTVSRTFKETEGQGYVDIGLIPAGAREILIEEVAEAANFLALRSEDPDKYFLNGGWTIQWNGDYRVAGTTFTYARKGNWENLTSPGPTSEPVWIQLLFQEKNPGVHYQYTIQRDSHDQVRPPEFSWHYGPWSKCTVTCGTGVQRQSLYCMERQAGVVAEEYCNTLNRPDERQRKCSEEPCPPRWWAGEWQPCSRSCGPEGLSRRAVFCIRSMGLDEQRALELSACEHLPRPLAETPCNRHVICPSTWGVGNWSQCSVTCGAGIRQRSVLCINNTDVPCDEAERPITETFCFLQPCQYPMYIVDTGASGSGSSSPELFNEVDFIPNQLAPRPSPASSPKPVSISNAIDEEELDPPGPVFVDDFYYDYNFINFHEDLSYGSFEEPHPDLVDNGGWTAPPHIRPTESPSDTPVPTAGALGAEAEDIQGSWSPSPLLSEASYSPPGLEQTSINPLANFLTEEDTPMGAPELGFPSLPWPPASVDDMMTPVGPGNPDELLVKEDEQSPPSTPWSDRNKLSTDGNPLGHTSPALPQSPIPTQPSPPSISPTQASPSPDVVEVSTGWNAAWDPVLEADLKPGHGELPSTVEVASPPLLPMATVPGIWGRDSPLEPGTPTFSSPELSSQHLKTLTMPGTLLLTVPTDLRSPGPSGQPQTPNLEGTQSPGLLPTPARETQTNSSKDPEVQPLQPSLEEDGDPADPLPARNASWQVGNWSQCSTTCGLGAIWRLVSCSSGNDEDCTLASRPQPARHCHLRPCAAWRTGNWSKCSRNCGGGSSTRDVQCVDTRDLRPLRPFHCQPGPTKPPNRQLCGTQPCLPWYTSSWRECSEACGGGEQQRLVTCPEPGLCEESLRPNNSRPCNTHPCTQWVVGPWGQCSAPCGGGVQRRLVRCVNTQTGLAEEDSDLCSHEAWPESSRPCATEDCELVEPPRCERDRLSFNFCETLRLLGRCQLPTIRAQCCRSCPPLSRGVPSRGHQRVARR
Assay: TMT10 TAILS N-terminomics, SMC2 experiment (process replicates, trypsin/AspN digest)
Format: cell-based
How it was run: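 Full-length mouse ADAMTS7 (WT or E373Q mutant, C-terminal 3xFLAG) or luciferase was transduced via adenovirus, 50 MOI, into HCA-SMC (SMC1, SMC2) or HUVEC. SMC1: pooled media, technical triplicates 400 ug; SMC2: process triplicates 300 ug; HUVEC: process triplicates 200 ug, bFGF2 10 ng/ml.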

[1] = SMC2_TAILS HC, log fold change, mEQ over Luc
[2] = SMC2_TAILS HC, log fold change of N-terminal peptide, Ad-mADAMTS7 EQ over Luc
[3] = log fold change, ADAMTS7 EQ over luciferase

Row | Substance | logFC.mEQ.over.Luc [1] | logFC.mEQ.over.Luc [2] | logFC.mEQ.over.Luc [3]
1 | COL1A2_80 (QYDGKGVGLGPGPMGLMGPR; listed as Homo sapiens) | −0.33 | – | –
2 | COL1A2_270 (VGNAGPAGPAGPR; listed as Homo sapiens) | −0.05 | – | –
3 | COL1A2_305 (LTGAKGAAGLPGVAGAPGLPGPR; listed as Homo sapiens) | −0.32 | – | –
4 | COL1A2_630 (VGTAGPSGPSGLPGER; listed as Homo sapiens) | −0.30 | – | –
5 | COL1A2_866 (LLGAPGILGLPGSR; listed as Homo sapiens) | −0.46 | – | –
6 | COL1A2_960 (AGAPGPHGPVGPAGKHGNR; listed as Homo sapiens) | −0.16 | – | –
7 | COL1A2_1028 (LQGLPGIAGHHGDQGAPGSVGPAGPR; listed as Homo sapiens) | −0.25 | – | –
8 | COL4A2_71 (YNGPPGLQGFPGLQGR; listed as Homo sapiens) | −0.32 | – | –
9 | COL18A1_1505 (LQPPVVQLHDSNPYPR; listed as Homo sapiens) | −0.01 | – | –
10 | LOXL1_218 (AVASAGVIYPYQPR; listed as Homo sapiens) | – | −0.11 | –
11 | LOXL2_45 (HQPQAPANVAKIQLR; listed as Homo sapiens) | – | 0.11 | –
12 | LTBP2_79 (VAGLQPVER; listed as Homo sapiens) | – | −0.09 | –
13 | LTBP2_250 (SAAGEGTLAR; listed as Homo sapiens) | – | −0.21 | –
14 | LTBP2_290 (QHVGLSR; listed as Homo sapiens) | – | −0.10 | –
15 | LTBP2_502 (LVENSVETRPPPWLPASPGHSLW; listed as Homo sapiens) | – | −0.18 | –
16 | LTBP3_103 (LTGSGFR; listed as Homo sapiens) | – | −0.92 | –
17 | LTBP3_208 (FLVPLGPGQISA; listed as Homo sapiens) | – | −0.03 | –
18 | MAP4_815 (AVASTGPSSR; listed as Homo sapiens) | – | −0.02 | –
19 | MAP4_816 (VASTGPSSR; listed as Homo sapiens) | – | 0.02 | –
20 | MMP1_100 (FVLTEGNPR; listed as Homo sapiens) | – | −0.05 | –
21 | MMP1_185 (FQPGPGIGG; listed as Homo sapiens) | – | −0.37 | –
22 | NBEA_1892 (LEKVAPLLR; listed as Homo sapiens) | – | −0.08 | –

Row | Substance | logFC.mEQ.over.Luc [1] | logFC.mEQ.over.Luc [2] | logFC.mEQ.over.Luc [3]
23 | NID1_360 (FHQQHPQVI; listed as Homo sapiens) | – | −0.22 | –
24 | NID2_291 (HSSVPLGR; listed as Homo sapiens) | – | 0.00 | –
25 | NID2_951 (YAYPGAR; listed as Homo sapiens) | – | −0.06 | –
26 | PAK4_141 (HSEAGGGSG; listed as Homo sapiens) | – | 0.69 | –
27 | PLIN3_75 (VSGAQPILSKL; listed as Homo sapiens) | – | 0.07 | –
28 | POSTN_727 (IITGPEIKYTR; listed as Homo sapiens) | – | −0.09 | –
29 | PPP1R18_295 (LSETLTR; listed as Homo sapiens) | – | 0.03 | –
30 | PTPRF_1859 (MRYEGVVDMFQTVKTLR; listed as Homo sapiens) | – | −0.08 | –
31 | QSOX1_210 (HKGVAVR; listed as Homo sapiens) | – | −0.49 | –
32 | SERBP1_56 (QAAAQTNSNAAGKQLR; listed as Homo sapiens) | – | – | −0.09
33 | SHC2_267 (VAKDPINQRACHIL; listed as Homo sapiens) | – | 0.04 | –
34 | SPOCK1_27 (LAGGAGPNHGNFL; listed as Homo sapiens) | – | −0.65 | –
35 | SRGN_59 (LLPGESNKIPR; listed as Homo sapiens) | – | 0.05 | −0.10
36 | THBS2_290 (LSENLKR; listed as Homo sapiens) | – | – | 0.59
37 | TNPO2_744 (VQ[Met(O)]VLNNLVEII[code n]RP[code n]TPKTLLE; listed as Homo sapiens) | – | 0.06 | –
38 | TNS1_236 (QEGLAGYQR; listed as Homo sapiens) | – | −0.59 | –
39 | TRGC2_86 (HRCIVRHENNK; listed as Homo sapiens) | – | 0.23 | –
40 | TTN_5975 (VKEPPVEFTKPL; listed as Homo sapiens) | – | −0.19 | –
41 | VAT1_42 (AASPPLLR; listed as Homo sapiens) | – | 0.27 | –
42 | VIM_314 (QESTEYR; listed as Homo sapiens) | – | −0.22 | 0.03
43 | VIM_333 (LKGTNESLER; listed as Homo sapiens) | – | −0.09 | −0.03
